In US20030219427A1, “TPL-2/COT kinase and methods of use” (priority 1998, published 2003):

Target: T1, Myc-TPL-2 MEK kinase activity (Rattus norvegicus, UniProt Q63562)
T1 construct: made in house; host or cells: HEK 293 cells, transient transfection, anti-Myc immunoprecipitation
Assay: In vitro MEK kinase assay with GST-MEK1(K207A) substrate, Myc-TPL-2
Type: biochemical
Settings: equivalent molar concentrations to p105498-969
Method: Myc-TPL-2 or Myc-TPL-2ΔC were isolated by immunoprecipitation from lysates of transiently transfected 293 cells, as described above. immunoprecipitates were washed four times in Buffer A, followed by two washes in kinase buffer (50 mM Tris-pH7.5, 150 mM NaCl, 5 mM β-glycerophosphate, 2 mM dithiothreitol, 0.1 mM sodium vanadate, 10 mM MgCl2, 1 mM EGTA, 0.01% Brij35). Beads were then resuspended in 50μl of kinase buffer plus the indicated amounts of recombinant p105 protein and incubated at 4° C. for 30 min. […] The supernatant was removed, mixed with an equal volume of 2×sample buffer, Western blotted after 8%-acrylamide SDS-PAGE and probed with anti-phospho-MEK-½ antibody. Immunoprecipitated Myc-TPL-2 or Myc-TPL-2ΔC was eluted with Laemlli sample buffer from the remaining anti-Myc mAb beads and quantified by Western blotting.
Only a small fraction of over-expressed Myc-TPL-2 is associated with p105, presumably due to titration of endogenous p105 protein. The effect of p105 binding on Myc-TPL-2 MEK kinase activity was investigated by incubation of TPL-2 imnmunoprecipitates with recombinant p105498-969 protein prior to in vitro kinase assay. MEK phosphorylation was assayed by Western blotting with anti-phospho-MEK-½ antibody. Control experiments confirmed that p105498-969 protein bound to TPL-2 in vitro. […]

T1 sequence (Q63562 whole entry): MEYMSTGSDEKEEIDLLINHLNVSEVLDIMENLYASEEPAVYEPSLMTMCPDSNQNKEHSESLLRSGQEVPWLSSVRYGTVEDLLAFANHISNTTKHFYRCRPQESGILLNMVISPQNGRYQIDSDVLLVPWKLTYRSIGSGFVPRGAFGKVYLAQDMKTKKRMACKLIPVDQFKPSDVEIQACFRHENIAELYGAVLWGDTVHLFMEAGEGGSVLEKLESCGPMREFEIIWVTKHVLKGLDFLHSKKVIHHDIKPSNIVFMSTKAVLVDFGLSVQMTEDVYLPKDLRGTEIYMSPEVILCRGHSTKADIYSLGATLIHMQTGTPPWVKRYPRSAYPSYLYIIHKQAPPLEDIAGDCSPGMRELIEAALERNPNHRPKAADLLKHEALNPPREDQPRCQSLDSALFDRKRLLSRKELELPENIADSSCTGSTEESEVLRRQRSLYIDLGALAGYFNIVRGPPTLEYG

B1: p105498-969(ΔDD): recombinant p105 498-969 protein which lacks the p105 death domain (protein)
chain: QDNLFLEKAMQLAKRHANALFDYAVTGDVKMLLAVQRHLTAVQDENGDSVLHLAIIHLHSQLVRDLLEVTSGLISDDIINMRNDLYQTPLHLAVITKQEDVVEDLLRAGADLSLLDRLGNSVLHLAAKEGHDKVLSILLKHKKAALLLDHPNGDGLNAIHLAMMSNSLPCLLLLVAAGADVNAQEQKSGRTALHLAVEHDNISLAGCLLLEGDAHVDSTTYDGTTPLHIAAGRGSTRLAALLKAAGADPLVENFEPLYDLDDSWENAGEDEGVVPGTTPLDMATSWQVFDILNGKPYEPEFTSDDSPVKTTSQAHSLPLSPASTRQQIDELRDSDSVCDSGVETSFRKLSFTESLTSGASLLTLNKMPHDYGQEGPLEGKI
In the case of B1, the “effect on Myc-TPL-2 MEK kinase activity” value is reported as “did not affect”.
